This is an account of results in patent publication US20070082369A1.

The target of assay [1] is E. coli-expressed recombinant Der f 1 protein PDerf1303c (Dermatophagoides farinae) (UniProt P16311). Nature of the assay: sandwich ELISA, capture MAb 6A8, detection biotinylated MAb 4C1; 25 ng protein per well. On the technique in general: In an ELISA, binding on a coated surface is turned into a signal by an enzyme label.
In assay [2] the target is Heska native Derf1 (Dermatophagoides farinae) (UniProt P16311). The description is as above.
Assay [3] addresses Pichia-expressed recombinant Der f 1 protein PDerf1303b (Dermatophagoides farinae) (UniProt P16311). The assay is described as above.
In assay [4] the target is E. coli-expressed recombinant Der f 1 protein PDerf1303c (Dermatophagoides farinae) (UniProt P16311). Nature of the assay: sandwich ELISA, capture MAb 6A8, detection biotinylated MAb 4C1; 50 ng protein per well.
Assay [5] addresses Heska native Derf1 (Dermatophagoides farinae) (UniProt P16311). The description is as above.
Assay [6] concerns the target Pichia-expressed recombinant Der f 1 protein PDerf1303b (Dermatophagoides farinae) (UniProt P16311). The description is as above.
Assay [7] concerns the target E. coli-expressed recombinant Der f 1 protein PDerf1303c (Dermatophagoides farinae) (UniProt P16311). Nature of the assay: sandwich ELISA, capture MAb 6A8, detection biotinylated MAb 4C1; 1.5 ng protein per well.
Assay [8] deals with Heska native Derf1 (Dermatophagoides farinae) (UniProt P16311). Described as above.
The target of assay [9] is Pichia-expressed recombinant Der f 1 protein PDerf1303b (Dermatophagoides farinae) (UniProt P16311). Described as above.
Assay [10] has as its target E. coli-expressed recombinant Der f 1 protein PDerf1303c (Dermatophagoides farinae) (UniProt P16311). Nature of the assay: sandwich ELISA, capture MAb 6A8, detection biotinylated MAb 4C1; 3.1 ng protein per well.
The target of assay [11] is Heska native Derf1 (Dermatophagoides farinae) (UniProt P16311). Described as above.
In assay [12] the target is Pichia-expressed recombinant Der f 1 protein PDerf1303b (Dermatophagoides farinae) (UniProt P16311). The description is as above.
Assay [13] addresses E. coli-expressed recombinant Der f 1 protein PDerf1303c (Dermatophagoides farinae) (UniProt P16311). Nature of the assay: sandwich ELISA, capture MAb 6A8, detection biotinylated MAb 4C1; 0.75 ng protein per well.
Assay [14] deals with Heska native Derf1 (Dermatophagoides farinae) (UniProt P16311). Described as above.
Assay [15] addresses Pichia-expressed recombinant Der f 1 protein PDerf1303b (Dermatophagoides farinae) (UniProt P16311). The assay is described as above.
In assay [16] the target is E. coli-expressed recombinant Der f 1 protein PDerf1303c (Dermatophagoides farinae) (UniProt P16311). In words: sandwich ELISA, capture MAb 6A8, detection biotinylated MAb 4C1; 6.25 ng protein per well.
For assay [17], the target named is Heska native Derf1 (Dermatophagoides farinae) (UniProt P16311). The assay is described as above.
The target in assay [18] is Pichia-expressed recombinant Der f 1 protein PDerf1303b (Dermatophagoides farinae) (UniProt P16311). The description is as above.
Assay [19] deals with E. coli-expressed recombinant Der f 1 protein PDerf1303c (Dermatophagoides farinae) (UniProt P16311). Nature of the assay: sandwich ELISA, capture MAb 6A8, detection biotinylated MAb 4C1; 2.5 ng protein per well.
The target in assay [20] is Heska native Derf1 (Dermatophagoides farinae) (UniProt P16311). The assay is described as above.
Assay [21] has as its target Pichia-expressed recombinant Der f 1 protein PDerf1303b (Dermatophagoides farinae) (UniProt P16311). The assay is described as above.

Turning to “anti-Der f 1 protein monoclonal antibody 6A8”, the OD in assay [1] came out at 1770 OD x1000; in assay [2], 2140 OD x1000; in assay [3], 2160 OD x1000; in [4] it was 1980 OD x1000; in [5] it was 2180 OD x1000; in [6], 2150 OD x1000. Also, the OD worked out at 268 OD x1000 in assay [7]; 2040 OD x1000 in [8]; 916 OD x1000 in [9]; 503 OD x1000 in [10]; 2220 OD x1000 in assay [11]; 1540 OD x1000 in assay [12]. In addition, the OD in [13] came to 136 OD x1000; in [14], 1740 OD x1000; in [15], 405 OD x1000; in assay [16], 890 OD x1000; in [17] it was 2200 OD x1000; in assay [18], 1960 OD x1000. In addition, the results for the OD in assay [19], in assay [20] and in assay [21] were 1370 OD x1000, 2290 OD x1000 and 2090 OD x1000, respectively.
